assay: soluble fraction after stress (log2 fold change); higher = more stays soluble; pooled small domains, quantitative proteomics; settings: stress: 75 degC
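Note: 20 min heating vs room temperature control held 20 min.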

| Sequence | soluble fraction (log2) |
| --- | --- |
| HMKEIPTKKGDMLEIYEANGKYILKYPTFNITMPEVVKEIPKEAVDSYLAGKHDGEELINYANFGFWKS | -0.0757 |
| HMKEKDAYTSEILDTLKNAKLLVVEGTVYPLLTRLKNDGLLNYRWEESTSGPPRKYYGLTDEG | -0.704 |
| HMKEKIIKEPYDLFTTDKIGQALEVQALLARQGIKVQRRVDGTKSTLFLENYTQSEKDQALLAVVRSGIV | -0.719 |
| HMKEKPLWAIRITELREEHYFTQTDVSKALGIAQTTYAGYETGRHEPDFETMIKIADIYKVSLDYLIGR | -2.03 |
| HMKELFETLPDVLDAKLLASALSISKAGAYQLLNRPDFPTLQVGGWKLVTKQKLALWMEQHTN | -3.39 |
| HMKELFGQRLREQRLKQNLTLEQLAEKANLSPNYVGMVERGLKEPGLATIVKLLNGLNVSADTLL | -0.446 |
| HMKELLTKQQREEILETVKTKTPKDFGYTAEHWTTGFLGKWIEEHYEVEYKSKTSLYLVFKKASFTYHKPG | 0.24 |
| HMKELTARQIEILDFITNYEWRHGYWPSIRNIQVQFSYKSTNAVMGHLRALERKGAIERIPGQARTFRIH | -3.53 |
| HMKEPFETMPDVMDAKQIAEALQISKAGAYNLLNSPDFPTLRIGGRKLVMKNELVEWLKSHTNRK | 0.428 |
| HMKEPPTLEEIKNYFASKLSTELESEKFFNYFESNGWLVGGKTPMKNWQSAANNWLINMSKFN | -0.853 |
| HMKEPQLGPVRKWSDQTGNFGIEAQFVKREGDNILLKRADQRTISIPLEKLSDADQEHLKQEEQKQAME | -0.333 |
| HMKEQLEAYVNRLFADAALTIRNAEVRQEILQHALDRYDDLIASGKTEQEAYDETVSGIGDVSGLYEHK | -0.584 |
| HMKETKVIHVHLIFKKTSRFFGSISAIYSEFTAEEIGITEETLRHKGLSDGVSFATKKAIIQQGVLIR | -2.78 |
| HMKEVDSESAFAERGISEVWIPALQKMGILTLEALDAANPNKVFNDLGGMRKKLKIDAAMPTKDEVTAWIQ | 0.0576 |
| HMKEVKPSDFFLSKLDEDHNLIEKFNALSSFKQKEFIEYIDSAKQEKTKHDRFEKIKPILLSNIGLNDKYR | -0.0777 |
| HMKEVVVPDYFLKQLQKNKKAFITFNNFSPSHKREYVEWITEAKTEETKNRRMKSAIEWMSEGKSRNWKYI | -0.589 |
| HMKFGETLIDLRKRNGLTQEELAAKLYVTRQAVSRWERGEVTPGIDMLKLIANVLNEPVAHLLDW | -2.14 |
| HMKFNRPMSEILQEWENKLGTTSDAELAGLIGVVTMTINRWRKNETKPDLSALNRYDRIVNLVVNNIKQL | -2.27 |
| HMKFPPELVEFIEGLSLLKPPLNYATVHRRAEKLAIKKGWASPSYSTVRNIIRKLSPALTTLAHEG | -2.57 |
| HMKGAADPAIKQKVLDYLDTVEKAKSKEIAKAISEEKSAVDLAVKELAFEDKVEYLYITTTFVALKGKVA | -1.51 |
| HMKGALQIAIEEGFNWNLDKKYWNIVQSTVIAKRLGLKTTSGLKEAIEGMGGEYKRTKKARGYLVPTFKD | -3.98 |
| HMKGDYWIIDLDKNYQYAIISEPDRQYLWILSRSPNMDTQTLETLKEKIRSKGFDLTYLKQTL | -1.53 |
| HMKGHQASTTWISERVKDIIKEDPTLGARKLQKRLEIHYNIELSYFKVWSGKNLQWMIFMVL | 0.0846 |
| HMKGSYTVKSGDNLWSIARKFYGGSGSTWTKIYSANKSTIESTARRYGRSSSDNGHWIYPGTVLVIP | -0.924 |
| HMKGVSFEEIERAVRTAQNPEADETAQQHAGMVFSRMEGNELFDKLVQSSSTIGKKITGLMDYYL | -0.239 |
| HMKGYIGESKARNIALKKAPGASITKFEFDKDDGIAVYEVELRKGIYEYELKINAVTGAIIEFEKDIE | -2.2 |

| Sequence | soluble fraction (log2) |
| --- | --- |
| HMKHKYWEIKERIKKDILNEVYKKGESIPSERDLAGIYDVTRVTVQKAMAMLVQEGYIERIHGKGMFVLKN | -2.32 |
| HMKHRFVVGEVLSIGKLQHEITLKTAQGERKFQLDKQDLPASIQDGAKVRAELNEAGRVIDVHPLK | -0.0848 |
| HMKHYMKITDISLQTRDKNRVNVSVDGKYRFSLDVFQVGELGLKVGREYTDEELTALEDESQFG | -1.11 |
| HMKIATIELVKEAVKSKLGKFTKRDIMELVPSVGKTTIENMLKQLIGEGYIERHGKGRATFYVK | -0.761 |
| HMKIDANTFTSIEKQLFVLLSKTPTPMGSIFVALAKEDKEAVWEVIHFLEAENRLIMNEDGTIQL | -2.14 |
| HMKIDEVSFAYIERTLFSMLGKLPTPVNKVIATIGEEKKETIWEVIRFLESENKLITNEDGTLQL | -2.46 |
| HMKIDNIIIYITGGVKKEGVYELPDGSRISDAIEQAEGLKANADTSSINLAYKLEDGMKIKIPLQGEN | -0.181 |
| HMKIDNPEYQKIMDMIPYFFQTRNYDEAIEALSYVIEQEPSFSEAYNKRATFYFMMGDFENSMKDIESTLA | -0.288 |
| HMKIEEVIEKLKTDSIISRKEYEDIVRQINPNLSDRTIFWQLAKLQDMGVLQKIGQNSFHVRN | -0.183 |
| HMKIERKGDESYLSFVERATSALSDGLIDYQQWGRAVVGEDLYSEENTRRIAKFFAQFIQNLEND | -2.62 |
| HMKIKAKYTTDFGIRIYAPKPGKNYWRISYVDLDGKLRDTTATSEKTALDKSAEIEVLLRNN | -2.2 |
| HMKILALETSAKAVSAAVSENGRILASGYQDTGLTHSRTLMPIVEHILKNTDLKLSDMDAIAVAVGPG | 0.144 |
| HMKIMSLSERHQKILELLKVNGIVSVNSLSRQLNVSSVTIRKDLGLLEEKKLLYRSHGGAIQID | -3.35 |
| HMKINYNEFLRRFLGEKEGDIIEMETGKRIGTHKGYWFHTIGQRKGLGLGGGPWFVIRKDIDENIIYVSHG | -1.3 |
| HMKIPGIGDVYAILARVYSGPQFTWIEAGFPEDDTKAYSYLHTAIRKGSAIAILQAMRTSGALTPTIEKE | -0.0245 |
| HMKIPPIMFVRAIMVAGRQSMAIMDIEGVGTGIIVRSGYSFSNGEGKVVRIGPDKVTVNWSGKHLDLAPG | -3.8 |
| HMKIPQFAVIKQYLEQQIKTAQWAPGRQIPTEQSLADTFSVSRMTARRAVQQLADAGLLERTQGSGTFVAD | -0.162 |
| HMKISDTITEKILTDNNFSMELAKKIGIQQGSLLSSIRRNRDSRILRLWEAVMFYKEQGYTEEEIFTDY | -2.61 |
| HMKISELAKKVIASGRVTQWAKHPHIYFVNGMRKVAIELDVNGVFSISMRYYPYDPADRELVENLIRGD | -2.67 |
| HMKIVQHQLQLPVHVAGKFKGMFYKSDFVMSEDYDDDGNMILAVRLPLVDWNKFLKRTDNELSQYIKVTP | -1.64 |
| HMKKALTAEQEARVRELYFRGINYYSANRYQDAIAEWRKVLAIDPNHEKAKNNIRQTLILLK | -1.26 |
| HMKKDNLKKIKSIDEDIENELFKLGIYHFEQISIWSSKNAEWIENFLNLPNYVRANQWVEQAKILK | -1.57 |
| HMKKDRKKMLKEGIVLFEKILRGMELSPTSEPLKKVLTSFNIQNKEDLYVKLGAGVISSEEVIKELKKK | -0.0286 |
| HMKKILIVTNRSAGMVVYTIPEEGIRREFTPGETKKIPFEELEKLAYLSGGRTLMENFLKIVDTETTEELG | -2.24 |
| HMKKIYEEVSEAILTMIKNGTLKPGDKLLPVHQLAEQFQVGRSAVREALSALRAMGLIEMKQGEGTYVKNF | -1.52 |
| HMKKKVDSENLLLDILKQMQPQASTNVLRKMLTNQRISVDDQIIHRAKHVVQEGQTVEIHPKP | -0.0451 |

| Sequence | soluble fraction (log2) |
| --- | --- |
| HMKKLPEKFDYNEISGLRIEAQQKLNEFQPLNIGQASRISGVTPADISVLLVYLEQLKYSNPDLFFKLNPD | -1.52 |
| HMKKLTAEEIQEAKDILEKIQEIPNFKKIFGDDTIKALENSTKTGVLLPDNIISKIHTLMIRFGIK | -0.202 |
| HMKKMEEEFALFNAWVDRRLGIPLAAYKENQMQRRILTIMENSGAKTLREYQQLIEGDEGVRAAFLAHIT | -2.15 |
| HMKKPIYLTIANDIEKKIFNNDYPKNERLPSERNLAEEYGVTRMTIRNSIEYLVSKGLLEKRLGSGNYVKR | -1.55 |
| HMKKPLEYIDVDKREDFPPVPNGMRYIHFYGGTKNYRAYIAPEDISRADFMEQYPEYVPEHN | 0.237 |
| HMKKSTLLLFFLKELLEGKKISLKSFALENDINIRTAQRYIEDIEEAFPDNLLKENDFYSFV | -2.89 |
| HMKKTETVRFTTNVTHGTKIKETDVEVVKISNSALPDKVVKNKTEVIGKYATADLFKGDFATENKVTD | 0.142 |
| HMKKTIIVHVVGEVNTPGIVELNEGARIIDAINGAGGKTEEADMSKINLAYVIEDGSQIYVPSIYE | -0.387 |
| HMKKTITISNYINVRDFATMSELPVNSILSVLMKNGIFVSLNEKIDFDTAWLVGSELGLEVKQKQG | -1.58 |
| HMKKYEFIEDLPGVGPATAQKLRDLGYHTVESLAMATARELEPIGVGEKKAFSMIEAARSAIGFS | 0.284 |
| HMKKYISEEQAKQAALETAGGGSVVKIKFTTDDGIKVYEIDIINGNYEYEITVHAETGKILDVDKERIH | -1.6 |
| HMKLELSNDFYNKIRLARKENGLTQEDLAEKLNMKVGVIQKIENGVRQTDSNLMKISKFLGVEIYVE | -1.98 |
| HMKLPNGYGGIAKLSGKRRNPWRVRVTKGWSVDEQTGKAKQLFSTLGYYPTRKDALAALSAYNQNP | -1.64 |
| HMKLRLGVNIDPVATVRNARGSAYPDPVRAAIIAQEAGADGITAHLREDRRHIVDQDITSIIKAIDIPLNF | -0.129 |
| HMKLRSIQEQVQYLEKVDNQKAMQIILNMNDKASAVQILRNMKKEKAAAILAQMDPLQAAQILEDLA | -0.34 |
| HMKLSDDIIVDTIKEIIEENKNMIEQRKMGAMGPLMGKAMAKFKGKADGQTVSNVIKDEILNIIN | -0.0773 |
| HMKLSIEDLAAELIRKIEAGDIGNEQGKMPSERELLAIYPVSRYTLRQALNKLSKMGWIYQMQGRGSYIRF | -1.48 |
| HMKLSNELLNAIMLIKKGIRNPTSLAQRLNTDTQYAKNLLEHLKMTGLINEHSRLTSRGLDIFHQK | 0.356 |
| HMKLTEEEFNAKRKAYLDRLETLNDEAVIKATFMEAASGLGLQKGSAEFGDLRKYFVDRIVDIK | 1.01 |
| HMKLTEGETIFLNESDTADWKKIPGIGSVYASRIVKYRNLLGGFVSVNQLREVYGIDDELFAKIYPYI | 0.085 |
| HMKLTESQLHKFTNDAVLAHIRNLIEFKGAFTEDDIEPIIRDRAAVYGIDLEDEDYKKVKTDVEYHFK | -0.0402 |
| HMKLVELVGSPKQIAWAEDIRKNMISYLSALVRKYEAENRPARAEKRAKDMEILSNIKEASWFIENRS | -0.733 |
| HMKMAKTIKEIAEEIGVSKQAVFKKIKQVPLSTEIEKFISTVDGKKLVSVDGENLIKQAFQR | 0.355 |
| HMKMLKAPIPGTIIEVKVNPGQTVNDGDVAVVLEAMKMESDIHFNSSGKVKKIHVNKGDSVQEGDDLIELE | 0.0235 |
| HMKMNRELNQRQIKMLDYLSVNPKTTRKQYTKMMGISFMTSYRDIQELIDKAYIISKGQGRGTYYILAN | -0.709 |

— the domain aggregation screens of Martell et al. (2025)
